Experiment [1] has as its target NRXN1β (lacking SS4) Fc fusion used as bait in the pull-down. Briefly: pull-down; soluble recombinant proteins mixed at 0.03 μM each in HBSS, 2 mM CaCl2, 1 mM MgCl2, 3 h, then Protein A-Sepharose 1 h, room temperature; NLGN3-His6 detected with anti-His.
The target of experiment [2] is NLGN3 ECD MF/IS mutant (M614I F615S) with His6 tag (mouse) (UniProt Q8BYM5). The experiment in a line: ITC; NLGN3 ECD (20 µM) in the cell, PTPδ Ig1–Fn1 (200 µM) injected; 20 mM Tris-HCl pH 8.0, 150 mM NaCl, 25 °C; one-site model. Background: Isothermal titration calorimetry measures the heat released or taken up as one component is titrated into another.
For experiment [3], the target named is NLGN3 ECD HSE/AAA mutant (H279A S280A E281A) with His6 tag (mouse) (UniProt Q8BYM5). Described as above.
Experiment [4] addresses mouse NLGN3 ECD (residues 35–684) with C-terminal His6 tag (mouse) (UniProt Q8BYM5). The experiment is described as above.
Experiment [5] addresses PTPδA3B– extracellular domain fused to Fc. Briefly: pull-down. The conditions noted are these: parent: est. 100; read off a plot.

Sequence of mouse NLGN3 ECD (residues 35–684) with C-terminal His6 tag (mouse) (Q8BYM5 35-684): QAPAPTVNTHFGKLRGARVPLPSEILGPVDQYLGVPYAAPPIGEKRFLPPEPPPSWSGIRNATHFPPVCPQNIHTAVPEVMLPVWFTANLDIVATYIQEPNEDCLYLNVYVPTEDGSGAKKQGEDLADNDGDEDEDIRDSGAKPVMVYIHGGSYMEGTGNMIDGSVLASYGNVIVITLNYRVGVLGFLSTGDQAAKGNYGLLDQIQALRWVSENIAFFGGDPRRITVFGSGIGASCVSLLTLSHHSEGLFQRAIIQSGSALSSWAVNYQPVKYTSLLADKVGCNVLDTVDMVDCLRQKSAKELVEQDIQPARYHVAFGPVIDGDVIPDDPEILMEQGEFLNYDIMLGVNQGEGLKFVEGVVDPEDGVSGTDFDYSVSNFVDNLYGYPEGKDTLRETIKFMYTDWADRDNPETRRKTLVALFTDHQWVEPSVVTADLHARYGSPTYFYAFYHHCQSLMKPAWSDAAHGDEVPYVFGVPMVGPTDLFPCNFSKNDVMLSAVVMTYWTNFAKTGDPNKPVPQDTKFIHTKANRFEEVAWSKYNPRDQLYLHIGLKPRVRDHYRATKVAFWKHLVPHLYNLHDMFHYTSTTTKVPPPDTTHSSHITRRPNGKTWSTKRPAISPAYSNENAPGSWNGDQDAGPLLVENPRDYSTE
Sequence of NLGN3 ECD HSE/AAA mutant (H279A S280A E281A) with His6 tag (mouse) (Q8BYM5 35-684 H279A/S280A/E281A): as the sequence (Q8BYM5 35-684) above, with H245A, S246A, E247A counted along it
Sequence of NLGN3 ECD MF/IS mutant (M614I F615S) with His6 tag (mouse) (Q8BYM5 35-684 M614I/F615S): as the sequence (Q8BYM5 35-684) above, with M580I, F581S counted along it

In the case of “NLGN3 ECD R448C mutant (R/C; equivalent to human R451C) with His6 tag (from UniProt Q8BYM5 35-684) (domain or fragment)”, the pulldown efficiency (% of wild-type) (% of wild-type) in experiment [1] stood at 40.
As usually defined, the Kd is the constant that tells how readily two partners part at equilibrium. A low value points to higher affinity. Consider PTPδA3B– Ig1–Fn1 (domain or fragment), for which the Kd in experiment [2] came to 27 µM; in experiment [3], 1.4 µM; in experiment [4], 4.4 µM.
“mouse NLGN3 ECD (residues 35–684) with C-terminal His6 tag (from UniProt Q8BYM5) D362A; E372A; N375A”: the percent of parent in experiment [5] was determined as 16 % WT.
The same measure, in the same setting: the same measure for “mouse NLGN3 ECD (residues 35–684) with C-terminal His6 tag (from UniProt Q8BYM5) H279A; S280A; E281A”: 88 % WT; for “mouse NLGN3 ECD (residues 35–684) with C-terminal His6 tag (from UniProt Q8BYM5) M614A; F615A”: 11 % WT.
The same measure, in the same setting: the same measure for “mouse NLGN3 ECD (residues 35–684) with C-terminal His6 tag (from UniProt Q8BYM5) M614I; F615S”: 14 % WT.

Source of the values: PMC7988105.
